One substance from patent US20070243582A1 can be followed below.

The assay has as its target human IgG (Sigma) (human). The assay is described as follows: ELISA: SPA′ coated at 5 µg/mL, human IgG 25 µg/mL, detection with HRP-labeled protein L, absorbance at 405 nm. (In general: ELISA stands for enzyme-linked immunosorbent assay.)

Substance “SPA′ (part of protein A of Staphylococcus aureus Cowan I strain (JCM2179) except for the signal sequence (S domain) and the cell wall-binding domain (X domain)), produced by Brevibacillus choshinensis HPD31-OK having Spa′-pNK3260 (from UniProt P38507 37-327)” gave a human IgG-binding activity per unit mass, relative to protein A manufactured by Repligen of 97%.
